# Results as given in US20120329711A1, “GLP-1 RECEPTOR AGONIST COMPOUNDS WITH A MODIFIED N-TERMINUS” (Nordisk A/S, priority 2009, published 2012).
# Where two headings read alike, the source gives them in different places.
# How the values were obtained:
# [1] = target: T1, human GLP-1 receptor (Homo sapiens, UniProt P43220)
# [2] = target: T1, human GLP-1 receptor; remark: listed apart in the source
# [3] = target: T1, human GLP-1 receptor; assay: SPA displacement of [^125I]-GLP-1(7-36)NH2 from BHK membranes with the human GLP-1 receptor, 0.005% HSA (low albumin)
# [4] = target: Human Serum Albumin (human) (UniProt P02768); assay: shift of the GLP-1 receptor IC50 (SPA displacement of ^125I-GLP-1) between 2.0% and 0.005% HSA, which the filing takes as an indication of albumin binding
# [5] = target: T1, human GLP-1 receptor; assay: SPA displacement of [^125I]-GLP-1(7-36)NH2 from BHK membranes with the human GLP-1 receptor, 2.0% HSA (high albumin)
Substance,EC50 of cAMP formation (AlphaScreen cAMP assay) [1],EC50 of cAMP formation (AlphaScreen cAMP assay) [2],IC50 [3],ratio [(IC50/nM) high HSA]/[(IC50/nM) low HSA] [4],IC50 [5]
"N^3-{2-[2-(1H-Imidazol-4-yl)-methylcarbamoyl]-2-methyl-propionyl}-[2-(2-{2-[2-(2-{2-[(S)-4-Carboxy-4-(17-carboxyheptadecanoylamino)-butyrylamino]ethoxy}ethoxy)-acetylamino]ethoxy}-ethoxy)acetyl][Arg^17,Arg^20,Arg^33,Lys^38]GLP-1A(3-37)-peptide",< 2.1 nM,–,–,–,–
"N^9-(5-oxo-5-phenylpentanoyl), N^ε26-[2-[2-[2-[[2-[2-[2-[[(4S)-4-carboxy-4-(17-carboxyheptadecanoylamino)butanoyl]amino]ethoxy]ethoxy]acetyl]amino]ethoxy]ethoxy]acetyl]-[Arg^34]-GLP-1-(9-37)-peptide",–,> 8 nM,> 40 nM,> 300,–
"N^9-{2-[2-(1H-Imidazol-4-yl)-ethylcarbamoyl]-2-methyl-propionyl}N^ε26-{2-[2-(2-{2-[2-(2-{(S)-4-Carboxy-4-[10-(4-carboxy-phenoxy)-decanoylamino]-butyrylamino}-ethoxy)-ethoxy]-acetylamino}-ethoxy)-ethoxy]-acetyl}, N^ε37-{2-[2-(2-{2-[2-(2-{(S)-4-Carboxy-4-[10-(4-carboxy-phenoxy)-decanoylamino]-butyrylamino}-ethoxy)-ethoxy]-acetylamino}-ethoxy)-ethoxy]-acetyl}[Arg^34,Lys^37]GLP-1(9-37)Glu^38-peptide",< 2.1 nM,–,< 40 nM,> 10,< 900 nM
"N^9-{2-[2-(1H-Imidazol-4-yl)-propylcarbamoyl]-2-methyl-propionyl}-N^ε36-(2-{2-[2-(17-carboxyheptadecanoylamino)ethoxy]ethoxy}acetyl) [Glu^30,Lys^36]GLP-1(9-37)Glu^38-peptide amide",< 2.1 nM,–,< 40 nM,> 10,< 900 nM
"N^9-{2-[2-(1H-Imidazol-4-yl)methylcarbamoyl]-2-methyl-propionyl}-N^ε36-(2-{2-[2-(17-carboxyheptadecanoylamino)ethoxy}ethoxy]acetyl)[Glu^30,Lys^36]GLP-1(9-37) Glu^38-peptide amide",< 2.1 nM,–,< 40 nM,> 10,< 900 nM

# Other lines, results leading:
EC50 of cAMP formation (AlphaScreen cAMP assay) [1],EC50 of cAMP formation (AlphaScreen cAMP assay) [2],IC50 [3],ratio [(IC50/nM) high HSA]/[(IC50/nM) low HSA] [4],IC50 [5],Substance
< 2.1 nM,–,< 40 nM,> 10,< 900 nM,"N^9-[2,2-dimethyl-3-oxo-3-(pyridin-2-ylmethylamino)propanoyl], N^ε26-[2-[2-[2-[[2-[2-[2-[[(4S)-4-carboxy-4-[10-(4-carboxyphenoxy)decanoylamino]butanoyl]amino]ethoxy]ethoxy]acetyl]amino]ethoxy]ethoxy]acetyl], N^ε37-[2-[2-[2-[[2-[2-[2-[[(4S)-4-carboxy-4-[10-(4-carboxyphenoxy)decanoylamino]butanoyl]amino]ethoxy]ethoxy]acetyl]amino]ethoxy]ethoxy]acetyl]-[Arg^34,Lys^3]-GLP-1-(9-37)-peptide"
< 2.1 nM,–,< 40 nM,> 10,< 900 nM,"N^9-[-{2-[2-(1H-Imidazol-4-yl)-ethylcarbamoyl]-2-methyl-propionyl}-N^ε18-[2-(2-[2-(2-[2-(2-((S)-3-[1-(19-Carboxy-nonadecanoyl)-piperidine-4-carboxyamino]-3-carboxypropionylamino)ethoxy)ethoxy]acetylamino)ethoxy]ethoxy)acetyl][Lys^18,Glu^22, Gln^34]GLP-1(9-37)-peptide"
< 2.1 nM,–,< 40 nM,> 10,< 900 nM,"N^9-{2-[2-(1H-Imidazol-4-yl)-ethylcarbamoyl]-2-methyl-propionyl}-N^ε26-[2-(2-{2-[2-(2-{2-[(S)-4-Carboxy-4-(17-carboxyheptadecanoylamino)butyrylamino]ethoxy}ethoxy)acetylamino]ethoxy}ethoxy)acetyl][His^31,Gln^34]GLP-1(9-37)-peptide"
< 2.1 nM,–,< 40 nM,> 10,< 900 nM,"N^9-{2-[2-(1H-Imidazol-4-yl)-ethylcarbamoyl]-2-methyl-propionyl}-N^ε26-{2-[2-(2-{2-[2-(2-{(S)-4-Carboxy-4-[10-(4-carboxy-phenoxy)-decanoylamino]-butyrylamino}-ethoxy)-ethoxy]-acetylamino}-ethoxy)-ethoxy]-acetyl}, N^ε37-{2-[2-(2-{2-[2-(2-{(S)-4-Carboxy-4-[10-(4-carboxy-phenoxy)-decanoylamino]-butyrylamino}-ethoxy)-ethoxy]-acetylamino}-ethoxy)-ethoxy]-acetyl}[Arg^34,Lys^37]GLP-1(9-37)-peptide"
< 2.1 nM,–,< 40 nM,> 10,< 900 nM,"N^9-{2-[2-(1H-Imidazol-4-yl)-ethylcarbamoyl]-2-methyl-propionyl}-N^ε26-{2-[2-(2-{2-[2-(2-{(S)-4-[4-(4-tert-Butyl-phenyl)-butyrylamino]-4-carboxy-butyrylamino}-ethoxy)-ethoxy]-acetylamino}-ethoxy)-ethoxy]-acetyl}, N^ε37-{2-[2-(2-{2-[2-(2-{(S)-4-[4-(4-tert-Butyl-phenyl)-butyrylamino]-4-carboxy-butyrylamino}-ethoxy)-ethoxy]-acetylamino}-ethoxy)-ethoxy]-acetyl}[Arg^34, Lys^37]GLP-1(9-37)-peptide"
< 2.1 nM,–,< 40 nM,> 10,< 900 nM,"N^9-{2-[2-(1H-Imidazol-4-yl)-ethylcarbamoyl]-2-methyl-propionyl}-N^ε36-(2-{2-[2-(17-carboxyheptadecanoylamino)ethoxy]ethoxy}acetyl) (Glu^30,Lys^36)GLP-1(9-37) Glu^38-peptide amide"
< 2.1 nM,–,< 40 nM,> 10,< 900 nM,N^9-{2-[2-(1H-Imidazol-4-yl)-ethylcarbamoyl]-2-methyl-propionyl}N^ε26-[2-(2-{2-[2-(2-{2-[(S)-4-Carboxy-4-(17-carboxyheptadecanoylamino)butyrylamino]ethoxy}ethoxy)acetylamino]ethoxy}ethoxy)acetyl][Arg^34]GLP-1(9-37)-peptide
